Experimental data reported in patent US20150010920A1.

Molecular target: trypsin from bovine pancreas (Sigma, St. Louis) (bovine) (UniProt P00760)
Experiment: inhibition kinetics of trypsin (0.005 µM) digesting EGFP-T/C1 at 0-100 nM leupeptin, absorbance at 490 nm, fitted with Enzfitter

trypsin from bovine pancreas (Sigma, St. Louis) (bovine), sequence (P00760 24-246): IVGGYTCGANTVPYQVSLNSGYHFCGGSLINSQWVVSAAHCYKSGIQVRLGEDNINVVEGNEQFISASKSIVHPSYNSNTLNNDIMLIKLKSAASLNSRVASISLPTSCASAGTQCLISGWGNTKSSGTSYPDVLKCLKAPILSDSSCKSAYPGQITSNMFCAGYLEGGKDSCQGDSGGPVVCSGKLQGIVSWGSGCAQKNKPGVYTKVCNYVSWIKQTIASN

leupeptin (Sigma, St. Louis) (peptide)
Ki: 31.1 nM
